From US20230277625A1 (SIMCHA IL 18, published 2023)

T1: Mouse IL-18Rα ectodomain (amino acids 19-329), biotinylated (mouse, UniProt Q61098 19-329, biotin on the AviTag (BirA ligase))
T1 construct: range 19-329; Secreted from Expi293 cells (H7 signal peptide removed); also called mIL-18Rα; mIL18Ra
T1 sequence: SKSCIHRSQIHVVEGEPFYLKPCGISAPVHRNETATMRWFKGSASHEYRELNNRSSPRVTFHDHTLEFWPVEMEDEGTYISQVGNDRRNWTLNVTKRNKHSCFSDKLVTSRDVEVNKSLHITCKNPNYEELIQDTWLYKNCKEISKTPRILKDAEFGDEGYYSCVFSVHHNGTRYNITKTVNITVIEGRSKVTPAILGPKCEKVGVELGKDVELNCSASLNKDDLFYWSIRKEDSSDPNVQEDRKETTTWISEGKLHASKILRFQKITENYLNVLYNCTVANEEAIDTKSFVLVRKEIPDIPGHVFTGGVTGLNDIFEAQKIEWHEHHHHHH

T2: Mouse IL-18BP (amino acids 31-194), biotinylated (mouse, UniProt Q9Z0M9 29-193, biotin on the AviTag (BirA ligase))
T2 construct: also called mIL-18BP
T2 sequence: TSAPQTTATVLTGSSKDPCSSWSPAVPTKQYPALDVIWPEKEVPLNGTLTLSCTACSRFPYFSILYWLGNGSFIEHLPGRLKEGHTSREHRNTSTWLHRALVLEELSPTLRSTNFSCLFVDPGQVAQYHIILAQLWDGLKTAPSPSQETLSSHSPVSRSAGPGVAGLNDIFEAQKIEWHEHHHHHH


How the values were obtained:
[1] = molecular target: T1, Mouse IL-18Rα ectodomain (amino acids …); experiment: SPR (Biacore T100), receptor captured via biotin, IL-18 as analyte
How it was run: (§1)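 Biotinylated IL-18Rα or IL-18BP captured on a biotin CAP chip (Rmax ~50 RU or ~10 RU respectively), with serial dilutions of IL-18 variants as analyte. Run at 25° C in HBS-P+ (10 mM HEPES pH 7.4, 150 mM NaCl, 0.005% P20); guanidine/NaOH regeneration. KD from 1:1 Langmuir fit.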

[2] = molecular target: T2, Mouse IL-18BP (amino acids 31-194), …; experiment: on-yeast binding isotherm (flow cytometry)
How it was run: (§2)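 Yeast displaying IL-18 variants were grown at 30 °C, then induced 1 day at 20 °C, with display checked by anti-myc-PE. Cells were stained on ice with biotinylated IL-18Rα (± IL-18Rβ) or biotinylated IL-18BP in PBS/0.5% BSA/2 mM EDTA. Binding was read by flow cytometry.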

[3] = molecular target: T1, Mouse IL-18Rα ectodomain (amino acids …); experiment: on-yeast binding isotherm (flow cytometry)
How it was run: as §2

[4] = molecular target: T2, Mouse IL-18BP (amino acids 31-194), …; experiment: SPR; KD ratio relative to WT IL-18
Protocol: (§3) Experiments were conducted using a Biacore T100 and carried out at 25° C. Biotinylated IL-18Rα or IL-18BP were immobilized onto a Biacore biotin capture chip (Series S CAP sensor chip, GE Healthcare) to yield an Rmax of ˜50 RU (IL-18Rα) or ˜10 RU (IL-18BP). Measurements were made with serial dilutions of the IL-18 variants in HEPES buffered Saline-P+buffer (10 mM HEPES pH 7.4, 150 mM NaCl, 0.005% surfactant P20). The surface was regenerated by three 60-sec injections of regeneration buffer (3/4 (v/v) 8M guanidine hydrochloride with 1/4 (v/v) 1M sodium hydroxide). Experiments were performed in multiple channels simultaneously for increased observations. All data were analyzed with the Biacore T100 evaluation software version 2.0 with a 1:1 Langmuir binding model.

[5] = molecular target: T2, Mouse IL-18BP (amino acids 31-194), …; experiment: SPR (Biacore T100), IL-18BP captured via biotin, IL-18 as analyte
Protocol: as §3

[6] = molecular target: T2, Mouse IL-18BP (amino acids 31-194), …; experiment: on-yeast binding isotherms; KD ratio relative to WT IL-18
Protocol: (§4) Individual colonies of IL-18 yeast were grown overnight at 30° C. in SDCAA liquid media and induced in SGCAA liquid media for 1 day at 20° C. IL-18 display levels on yeast were verified by flow cytometry using an anti-cMyc tag antibody (anti-myc-PE; Cell Signaling Technologies). Receptor staining with biotinylated IL-18Rα (with or without IL-18R β) or biotinylated IL-18BP was performed in PBS supplemented with 0.5% BSA and 2 mM EDTA (PBE) on ice. All analysis was performed on a Sony SA3800 flow cytometer.

[7] = molecular target: T2, Mouse IL-18BP (amino acids 31-194), …; experiment: on-yeast binding isotherms; KD for IL-18BP over KD for IL-18Rα
Protocol: as §4

[8] = molecular target: T2, Mouse IL-18BP (amino acids 31-194), …; experiment: on-yeast binding isotherm (flow cytometry): yeast-displayed murine IL-18 variant titrated with mIL-18BP, % max
Protocol: as §4

[9] = molecular target: T2, Mouse IL-18BP (amino acids 31-194), …; experiment: SPR, immobilized biotinylated mIL-18BP, representative sensorgram FIG. 11B; representative sensorgram, FIG. 11B
Protocol: By contrast, very little binding is observed with the same variants and mIL-18BP (right). FIG. 11B provides measurement of IL-18BP binding using representative surface plasmon resonance sensor grams between immobilized biotinylated mIL-18BP and the murine DR-IL-18 variants.
as §3

[10] = molecular target: T2, Mouse IL-18BP (amino acids 31-194), …; experiment: SPR
[11] = molecular target: T1, Mouse IL-18Rα ectodomain (amino acids …); experiment: SPR
[12] = molecular target: T2, Mouse IL-18BP (amino acids 31-194), …; experiment: SPR; KD(IL-18BP)/KD(IL-18Rα) normalized to WT IL-18
[13] = molecular target: T2, Mouse IL-18BP (amino acids 31-194), …; experiment: SPR; KD for IL-18BP over KD for IL-18Rα
Protocol: as §3

[14] = molecular target: T2, Mouse IL-18BP (amino acids 31-194), …; experiment: SPR; KD for IL-18BP over KD for IL-18Rα; SPR; ratio of measured KDs
Protocol: as §3

[15] = molecular target: T2, Mouse IL-18BP (amino acids 31-194), …; experiment: yeast binding isotherms and SPR; members per FIG. 11A legend
[16] = molecular target: T2, Mouse IL-18BP (amino acids 31-194), …; experiment: on-yeast binding isotherms; KD ratio relative to WT IL-18; on-yeast isotherm; normalized ratio from 10 µM put in for NBD
Protocol: as §4

[17] = molecular target: T2, Mouse IL-18BP (amino acids 31-194), …; experiment: on-yeast binding isotherms; 10 µM used for NBD; on-yeast isotherm; ratio is a bound reckoned from 10 µM put in for NBD
Protocol: as §4

[18] = molecular target: T2, Mouse IL-18BP (amino acids 31-194), …; experiment: SPR; KD ratio relative to WT IL-18; SPR; ratio normalized to WT
How it was run: as §1

[19] = molecular target: T2, Mouse IL-18BP (amino acids 31-194), …; experiment: SPR (Biacore T100), IL-18BP captured via biotin, IL-18 as analyte; SPR; very weak binding, about 15 µM
Protocol: as §3

[20] = molecular target: T2, Mouse IL-18BP (amino acids 31-194), …; experiment: SPR (Biacore T100), IL-18BP captured via biotin, IL-18 as analyte; SPR; weak binding, 3.8 µM
Protocol: as §3

[21] = molecular target: T2, Mouse IL-18BP (amino acids 31-194), …; experiment: SPR; 30 µM used for NBD; SPR; ratio is a bound reckoned from 30 µM put in for NBD
Protocol: as §3

[22] = molecular target: T2, Mouse IL-18BP (amino acids 31-194), …; experiment: SPR; KD ratio relative to WT IL-18; SPR; normalized ratio from 30 µM put in for NBD
Protocol: as §3

Row | Binder | Kd [1] | Kd [3] | KD ratio IL-18BP/IL-18Rα [14] | Kd [15] | Dissociation Constant Ratio normalized to WT IL-18 [16] | KD ratio IL-18BP/IL-18Rα [17] | Dissociation Constant Ratio normalized to WT IL-18 [18] | further results
1 | Mouse Interleukin-18 (mature form), wild type (ligand, also called mIL-18 WT; WT mIL-18) NFGRLHCTTAVIRNINDQVLFVDKRQPVFEDMTDIDQSASEPQTRLIIYMYKDSEVRGLAVTLSVKDSKMSTLSCKNKIISFEEMDPPENIDDIQSDLIFFQKRVPGHNKMEFESSLYEGHFLACQKEDDAFKLILKKKDENGDKSVMFTLTNLHQS | 0.6 nM | 11.3 nM | – | – | – | – | – | Kd [2]: 2.13 nM; Dissociation Constant Ratio normalized to WT IL-18 [4]: 1; Kd [5]: 0.0011 nM; Dissociation Constant Ratio normalized to WT IL-18 [6]: 1; KD ratio IL-18BP/IL-18Rα [7]: 0.188; EC50 (read off the curve) [8]: ~20 nM; Kd [9]: 0.0008 nM; Kd [10]: 0.0011 nM; Kd [11]: 0.6 nM; IL-18 BP:Rα Dissociation Constant Ratio [12]: 1; KD ratio IL-18BP/IL-18Rα [13]: 0.00183
2 | SEQ ID NO: 67 (murine DR-IL-18 variant mB1) (ligand, Engineered variant) HFGRLHCTTAVIRNINDQVLFVDKRQPVFEDMTDIDQSASEPQTRLIIYGYADSDARAKAVTLSVKDSKMSTLSCKNKIISFEEMDPPENIDDIQSDLIFFQKSVPGHNKMEFESSLYEGHFLACQKEDDAFKLILKKKDENGDKSVMFTVTNLHQS | 0.7 nM | 17.9 nM | 21000 | > 1000 nM | > 2960 | > 559 | 1.15e+07 | Kd [19]: 14700 nM
3 | SEQ ID NO: 60 (murine DR-IL-18 variant mCS1) (ligand, Engineered variant) NFGRLHCTTAVIRNINDQVLFVDKRQPVFEDMTDIDQSASEPQTRLIIYGYADSRVRGKAVTLSVKDSKMSTLSCKNKIISFEEMDPPENIDDIQSDLIFFQKRVPGHNKMEFESSLYEGHFLACQKEDDAFKLILKKKDENGDKSVMFTLTNLHQS | 0.54 nM | 10.7 nM | 7040 | > 1000 nM | > 4960 | > 935 | 3.84e+06 | Kd [20]: 3800 nM
4 | SEQ ID NO: 64 (murine DR-IL-18 variant mE8) (ligand, Engineered variant) NFGRLHCTTAVIRNINDQVLFVDKRQPVFEDMTDIDQSASEPQTRLIIYVYTDGRRRGKAVTLSVKDSKMSTLSCKNKIISFEEMDPPENIDDIQSDLIFFQKKVPGHDKMEFESSLYEGHFLACQKEDDAFKLILKKKDENGDKSVMFTLTNLHQS | 1.69 nM | 42 nM | – | – | > 1260 | > 238 | – | KD ratio IL-18BP/IL-18Rα [21]: > 17800; Dissociation Constant Ratio normalized to WT IL-18 [22]: > 9.68e+06
